Assay results reported in article PMC10330345 (2023).
Substitutions are numbered along the chain they refer to.

B1: BTN2A1 271-527 (protein)
chain: KLQKEKKILSGEKEFERETREIALKELEKERVQKEEELQVKEKLQEEGRARRTFLHAVDVVLDPDTAHPDLFLSEDRRSVRRCPFRHLGESVPDNPERFDSQPCVLGRESFASGKHYWEVEVENVIEWTVGVCRDSVERKGEVLLIPQNGFWTLEMHKGQYRAVSSPDRILPLKESLCRVGVFLDYEAGDVSFYNMRDRSHIYTCPRSAFSVPVRPFFRLGCEDSPIFICPALTGANGVTVPEEGLTLHRVGTHQSL
B2: BTN2A1 271-527 (protein)
chain: B1 chain with A50W
B3: BTN2A1 271-527 (protein)
chain: B1 chain with G48L

The binders below were run against BTN3A1 272-513 (Homo sapiens, UniProt O00481) (assay: ITC).
Sequence of BTN3A1 272-513 (O00481 272-513): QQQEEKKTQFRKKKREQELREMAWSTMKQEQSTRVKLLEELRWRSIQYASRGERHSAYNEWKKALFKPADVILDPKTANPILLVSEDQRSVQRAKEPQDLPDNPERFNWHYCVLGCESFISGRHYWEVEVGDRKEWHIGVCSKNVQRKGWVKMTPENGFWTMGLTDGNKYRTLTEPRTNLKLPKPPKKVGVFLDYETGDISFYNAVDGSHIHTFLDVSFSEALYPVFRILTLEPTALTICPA

| Binder | Kd |
| --- | --- |
| B1 | 710 nM |
| B2 | 1160 nM |
| B3 | 670 nM |
